This series in a line: soluble on expression in E. coli; label from the status in PepcDB or PDB records.
Consider “MMKIAIIGSGISGLTCGYYLHRYHDITLFEANDYIGGHTATVDVELAGKPYAVDTGFIVYNDRTYPNFIKMMDEIGVQGKPTQMSFSVRNDANGLEYNGHTLTTLFAQKRNWLNPKFYRFIAEILRFNRLTKACVDNQLANEQTLGDFLAQHQFSEYFCENYILPMGAAIWSSSLADMRAFPLMFFARFFLNHGLLDVTNRPQWYVIPGGSRSYIAPLTQGFGDRIRLNSAVTQVKRLPSGVEVVVNGRSERFDEVIFACHSDQALAMLSDASSTEQQLLSALAYQANEVVLHTDTRLLPKRKAAWAAWNYWLKGEANQETRLPSLTYNMNILQHIEAPETFCVTLNSSEDIDPSKILRRFTYHHPVFSRPAIEAQQKKAQISGVNHTWFCGAYWHNGFHEDGVRSALDVVTQLEAYAQRSEQGAA”, for which the “soluble on expression in E. coli” value was “not soluble”.

On to “MMKIVPPKPFFFEAGERAVLLLHGFTGNSADVRMLGRFLESKGYTCHAPIYKGHGVPPEELVHTGPDDWWQDVMNGYEFLKNKGYEKIAVAGLSLGGVFSLKLGYTVPIEGIVTMCAPMYIKSEETMYEGVLEYAREYKKREGKSEEQIEQEMEKFKQTPMKTLKALQELIADVRDHLDLIYAPTFVVQARHDEMINPDSANIIYNEIESPVKQIKWYEQSGHVITLDQEKDQLHEDIYAFLESLDW”, for which the “soluble on expression in E. coli” value is on record as “soluble”.

For the sequence “MMKKIAITCALLSSLVASSVWADAASDLKSRLDKVSSFHASFTQKVTDGSGAAVQEGQGDLWVKRPNLFNWHMTQPDESILVSDGKTLWFYNPFVEQATATWLKDATGNTPFMLIARNQSSDWQQYNIKQNGDDFVLTPKASNGNLKQFTINVGRDGTIHQFSAVEQDDQRSSYQLKSQQNGAVDAAKFTFTPPQGVTVDDQRK”, the “soluble on expression in E. coli” value was “soluble”.

For the sequence “MMKTFHWKVDPDMGVDSEPQVSVVRFGDGYEQRRASGINNDLKKYSVTIRVDREDGPGLEGFLSQHNGVKAFLWTPPYGYRQIKVVCRKWSVKAGLLKTTFTATFEQVIS”, the “soluble on expression in E. coli” value is “not soluble”.

For the sequence “MMKVYRLYLRDEYLEMVKSGKKRIEVRVAYPQLKGMKRGDKIIFNDEVPAEVIEVKHYETFRQVLREEPIDKIFPDEPSFERALRRFHNLYPKWKENRYGVIAIKFKLLGRERK”, the “soluble on expression in E. coli” value is on record as “soluble”.

Turning to “MMQALTYYRDLAANTMPGSNDIMEVKDAFMNGTAPMAIYSTYILPAVIKEGDPKNVGFVVPTEKNSAVYGMLTSLTITAGQKTEETEAAEKFVTFMEQADNIADWVMMSPGAALPVNKAVVTTSTWKDNDVIKALGELPNQLIGELPNIQVFGAVGDKKFTRMGDVTGSGVVSSMVHNVTVGKADLPGTLQTSQKKLDELIEQH”, the “soluble on expression in E. coli” value is given as “not soluble”.

For “MMQMPKIGIIGGSGVYGVFEPKEVVKVHTPYGRPSAPIEIGEIEGVEVAFIPRHGKYHEFPPHQVPYRANIWALHELGVERVIAINAVGSLKEEYKPGDIVIIDQFIDFTKKREYTFYNGPKVAHVSMADPFCPELRKIFIETAKELNLPVHERGTYVCIEGPRFSTRAESRMFRQFADVIGMTLVPEVNLARELGMCYVNISTVTDYDVWAEKPVDAQEVLRVMKENEEKVQKLLKRAIPKIPEERKCGCADVLKTMFV”, the “soluble on expression in E. coli” value is “soluble”.

For the sequence “MMQPVIRKNHMDIAWHEYTDENGADIPVTQASLTEKASIIGRVGIMFLSCGTGAWRVRSSMNTLAEIMGITCTADIGLMSIEYTCFDGEEGFTQSLCLTNTGVNTSKLNRLEHFIREFEIDGKDMSGEELHTLLDDIER”, the “soluble on expression in E. coli” value was “not soluble”.

Turning to “MMQSGYRAPISRKSVVNTTPATPARTDRRTVSMAQQLLMPKATAVWLVDNTALSFDQIATFCKLHPLEVKAIADGEAAQGIKGLDPIATGQLSRDEIARAEGNPSHKLKLSEPKVRVPESKRRGPRYTPVSKRQDRPNAILWLVRNHPELKDAQISRLVGTTKSTIEQIRDRTHWNSANLTPMDPVTLGLCSQIDLDLEVERASRGRPLPTAEELGNTLQPATATEGLDYNNYQREEEQQIDADAVFKKLSSLKSAPKDEDEDDQYLEHHHHHH”, the “soluble on expression in E. coli” value is given as “soluble”.

In the case of “MMRSHVITHFSMPNIDLHSHSTISDGMLSPSRLLAHAAVRGVNVLALTDHDDIAGLSEASRSAQQENITLIRGVEISVTWHGRTLHILGLGINPEHPPLTEGLKKIRDGRMDRARAIAAQLDKFGIHGSFEGASAQAGISRLIGRTHFARFLVSQGYAKNVKSVFKKYLVKGKPGHVSHVWVSLDEAIGWIRGSGGQAVIAHPARYKLSNDLLEQLLCEFRELGGAGIEVVSSSHTPEQTRQFAALATRMNLYASCGSDYHGPGESYFDLGRLPALPPECTPIWNEWEIPDYAETGATTLNEQSEQTGLQSPGKSV”, the “soluble on expression in E. coli” value was “not soluble”.

In the case of “MMSDQENENEHAKAFLGLAKCEEEVDAIEREVELYRLNKMKPVYEKRDAYIDEIAEFWKIVLSQHVSFANYIRASDFKYIDTIDKIKVEWLALESEMYDTRDFSITFHFHGIEGDFKEQQVTKVFQIKKGKDDQEDGILTSEPVPIEWPQSYDSINPDLIKDKRSPEGKKKYRQGMKTIFGWFRWTGLKPGKEFPHGDSLASLFSEEIYPFCVKYYAEAQRDLEDEEGESGLSADGDSEDDDGSLGEVDLPLSDEEPSSKKRKV”, the “soluble on expression in E. coli” value is on record as “soluble”.

On to “MMSLREKLIRELRRRGPIGIDQYEIEELMGFSKSTASEALSKLEAEGIIARRQISGRSKRVWLREFIPYRDPEMIRIGCLKSTEYAGFLSAAKDYCENKGIKAVIRFYNDATSILHDLSTGTLEFGLSPIFTETLFALSRHDIVIAGPVASGGSGIFENPASCENIVATSESTSMMLLSREFRRREGDVKITIFSDPIKASDGFRAGDFRYIAIWEPYASVIGANKLYDYSDLMDTFPCCGIAVSSGRSKDADLKSIIDAYRETDVEIRSDVIDMLSKATRCSKRAVMNSLGSYNFKLKYDMQTILRYMDFIGYPASEDAIKKVFLL”, for which the “soluble on expression in E. coli” value is on record as “soluble”.

With “MMTKTQINKLIKMMNDLDYPFEAPLKESFIESIIQIEFNSNSTNCLEKLCNEVSILFKNQPDYLTFLRAMDGFEVNGLRLFSLSIPEPSVKNLFAVNEFYRNNDDFINPDLQERLVIGDYSISIFTYDIKGDAANLLILEHHHHHH”, the “soluble on expression in E. coli” value is given as “not soluble”.

Regarding “MMTSNSYWQRLKVAFQYVMPQIYLTQIAGWFAKQKWGKITHFVIKAFAKKYNIDMSIAQKEQFSDYASFNEFFIRPLKENARPINQNPTALCLPADGRISECGHIDDNLLLQAKGHFFSLEDLLAEDKELVETFKNGEFVTTYLSPRDYHRVHMPCDATLRKMIYVPGDLFSVNPFLAQHVPNLFARNERVICVFDTEFGTMVQILVGATITASIGTTWAGVINPPRHNEVKTWTYEGESAVKLLKGQEMGWFQLGSTVINLFQANQVRLADHLSVNEPVRMGEILAYKKLEHHHHHH”, the “soluble on expression in E. coli” value is recorded as “not soluble”.

Take “MMVRVMRYKKVPVKKIVNKIIDECDVILLVLDARDPEMTRNRELEKKIKAKGKKLIYVLNKADLVPKDILEKWKEVFGENTVFVSAKRRLGTKILREMIKQSLKEMGKKEGKVGIVGYPNVGKSSIINALTGKRKALTGSVAGLTKGEQWVRLTKNIKLMDTPGVLEMRDEDDLVISGALRLEKVENPIPPALKILSRINNFDNSIIKEYFGVDYEEVDEELLKKIGNKRSYLTKGGEVDLVRTAKTIIKEYQDGKLNYYKVDLKKYGQDRERDISFITKYLKDFPFIEDAKMIVTHLKDFDGLYKKIKKPVLGSEEIDGNIVVVSFGEKTKDACRKKVENLCRERNIEVLSKFGDKIGANNIYVAVGKRVKE”: the “soluble on expression in E. coli” value is given as “soluble”.

With “MMVYQRPVFTVISLLRIRNREEAKLVLIGAVVVYRNFVEQTLADAQKNWVKSLVLYDDPGDAVTGILTWFSRYACLHGPRLGPLDTIAVNDNPLYIYCPRRKLEEYAKERIVSFHSEIGSVVCSMSPFDAGVTREKVRYGHNLISPGSCLLPDALEAYVAFLPSKSFLKLPYSVYEVHNDRYVHKFFALLPGSRFHFEVVAVGLAYPAAKKRPSGLGILRCCFTGKTNTCLLEHHHHHH”, the “soluble on expression in E. coli” value is on record as “soluble”.

Turning to “MNAGKKGVIYTCITGGYDELLNHTFISPEWDYVCFSDDMGINNEKNAQWEIRPLRFEKLDDVRNQRWHKLHPHLLFPESGLSLWVDGNVDILDGEIFHDIDRALNANLLIAPSLHPERNCIYDEFDACRQLGKDDPDVMGRQEYLIKKDGFPKAKGLFETNIIFRCHSHPMVITIMEEWWYWVEQYSRRDQLGFTYVLWKNNYTVEPLSPVSYRFSPGVRFRYGAFHITKEQLIKEKAALEIKVQRFEALICGRLVKVLYKIRKSTVKRWCRVKMQLLNSLCCRKLEHHHHHH”, the “soluble on expression in E. coli” value is “not soluble”.

“MNALDLDVLQHARDWLASGRRVHLVTVVQTWGSAPRQAGAMLAVRDDGQVVGSVSGGCIEDDLIARARAGTLPERAERLTYGVTRDEATRFGLPCGGTLRLVAEPLAPRDAWLDEVLQAIAEHRLVRRTIDLHTGAAALEAAAPAEGPDFDGRMFRAVYGPHWRLLIIGANQTAQVRADIAATLDFQVIVCDPREEFHAAWHAPHATLVTTMPDDTVLEIGTDERTAIVALTHDPKLDDMVLLEALKSRAFYVGALGSRANQEKRRERLRLFDLGDEDIARLRGPVGLPIASRTPAEIAVAVAAELVWVRNTLGDREPSGAPLPAALAPAR”: the “soluble on expression in E. coli” value is “not soluble”.

For “MNALPPARRLRVASIGGGFSGAALAWHLARAHRPERLSISVIEPRLALGGGLAYSSEEPSHRVNVPAVRMSMAPDDPQHFVRWLAGSGELERDADAIWKNGDAYPRRRVFGRYVAEHLAPYLASGAVRHVGGPATGVTREANGAGWTVQTSAGPVIADIVVLAATHPAPAIPAALASLAEASGFVADPYAASALAGIGLDASVLIVGSGLTSADMVTELDRRGHRGRVLALSRRGLRSRGHPDVRGEPFGDFASAPATSALGLLKSIRATLAAAREANVNWQSVFDQLRLQGPVLWAALAPSERARLVRQLRVFWDVHRFRIAPQIASVLDRRQTAGTFDTIAARLVASNDEGENLAVSFQRRGQTRIETARFDAVINTTGPAHGQALQLNPALRSLAEAGLIRSDAYGLGIETSLDSRAIGWDGEAVAGLFVAGPLARGTFGELMGLPEVARHAQMVAAEIARLVDRFPSAEAVGANAGDVATARLEHHHHHH”, the “soluble on expression in E. coli” value is on record as “not soluble”.

In the case of “MNAPVKFEYFKNPKNRELTAVELEAFAKELDQIKQEVLDDIGEKDAKYIRRVYSAVRYSSMLGRACLFAGWFPPAWILGTGLLGFSKIMENMELGHNVMHGQYDWMNDPKFNGQTYEWDTVGTADNWRQTHNYKHHTYTNIKGIDDDIGYGLLRLFPEQRWKPGFLLQPIYSIPFCMLFQWGVAIQNLEIGKLIYKRKTWKQFKQECKPTQKKIGKQLFKDYVFFPLIAGPAALPVFTGNLVANGIRNAWTFSIIFCGHFTKDVEVFPKTVLQNETRGHWYMRQIRGSSNLTGSEAFHILTGHLSHQIEHHLFPDVPARRYRQMAPKVEAVCKKYGLNYNNASLFKQYGQVLGRIVKYAFPFKKLEHHHHHH”, the “soluble on expression in E. coli” value is “soluble”.

In the case of “MNAQRVVVMGLGNLLWADEGFGIRVAERLYARYHWPEEVEIVDGGTQGLNLLGYVEQASHLLLLDAIDYGLAPGSLRTYAGEKIPAYLSAKKMSLHQNSFSEVLALADIRGHLPCHIALVGLQPALLDDYGGSLSEIARSQLPAAEQAALAQLAAWGIVPQANEVARCLNYKCLSMENYEGVRIRQYQTRLEGKRSGE”, the “soluble on expression in E. coli” value is “not soluble”.

Consider “MNDAPPFDLDAYLARIGYTGPRNASLDTLKALHFAHPQAIPFENIDPFLGRPVRLDLAALQDKIVLGGRGGYCFEHNLLFMHALKALGFEVGGLAARVLWGQSEDAITARSHMLLRVELDGRTYIADVGFGGLTLTAPLLLEPGREQKTPHEPFRIVEADDHFRLQAAIGGDWRSLYRFDLQPQYEVDYSVTNYFLSTSPTSHFLSSVIAARAAPDRRYALRGNRLSIHHLGGRTEQTEIATAADLADTLQGLLGIIIPDRTAFEAKVRETKIVETNA”, for which the “soluble on expression in E. coli” value is listed as “soluble”.

For the origin of these results see the DeepSol protein solubility set.
